Source: the supplement of paper PMC10567573

B1: STK38L (parent)
chain: RQLAYSTVGTPDYIAPEVFMQTGY
B2: HDAC6 (parent)
chain: KMKTRELHRESSNFDSIYICPSTF

Variants of: B1
Experiment: protein stability index of a GFP-peptide fusion (GPS, HEK-293T) (PSI 1-6); higher = more stable
Conditions: c terminus: a fixed tail appended
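Further: lentivirally expressed fusions sorted by FACS into six bins by GFP to DsRed ratio, PSI derived from sequencing read proportions per bin multiplied by bin number.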

Protein stability index: each site, then its substitutions
G23: V 1.81, C 1.6, D 2.83, F 1.52, W 1.6, I 1.99, N 2.57, M 1.63, R 2.83, P 2.35, A 2.34, H 2.16, Y 1.86, K 2.59, Q 2.28, S 2.5, E 2.5, L 2.28, T 2.06
F19: N 3.22, M 2.82, P 3.47, Y 2.61, H 2.76, K 3.12, C 3.08, S 2.78, G 3.53, A 3.68, T 3.61, R 3.81, I 2.51, D 4.07, V 2.71, E 3.38, L 2.92, Q 3.11
Q21: L 1.7, H 2.79, N 2.26, R 2.62, A 2.88, Y 1.51, G 2.27, F 2.21, T 2.42, S 2.74, V 1.11, E 3.22, W 1.82, I 1.65, K 2.66, D 3.06, P 2.49, C 1.75
Y13: V 2.33, W 1.88, F 1.93, P 2.75, Q 3.01, C 3, N 3.57, T 2.92, L 2.15, K 2.92, M 2.57, S 4.05, H 2.42, D 3.26, I 3.12, E 3.29, G 3.08, A 2.9
T10: K 2.17, P 2.48, M 2.61, N 2.05, Q 3.41, A 2.88, R 2.86, Y 1.72, F 1.73, I 1.3, H 2.36, E 2.89, G 3.01, C 2.18, W 1.72, D 2.16, L 1.96, V 2.27, S 1.42
Y24: A 3.35, I 2.63, E 4.54, G 3.43, Q 3.53, W 2.33, N 3.35, K 3.38, H 3.26, M 2.67, L 2.44, R 3.06, F 2.19, P 3.25, T 3.42, D 4.18
P16: E 2.96, N 2.81, T 1.82, F 2.79, C 2.29, A 2.3, K 1.91, M 2.13, H 2.17, Q 2.35, Y 1.89, I 3.9, R 2.12, D 2.46, S 2.16, L 1.57, G 1.96
T22: S 2.77, C 2.24, L 1.96, V 1.68, M 2.48, D 3.02, E 3.46, H 2.63, Y 2.47, R 2.85, P 3.18, W 1.36, I 2.39, G 3.65, A 2.13, Q 3.04, F 2.09, K 2.32, N 2.98
I14: F 1.57, P 2.39, K 3.11, H 2.57, D 2.81, T 2.69, A 3.13, M 2.4, W 1.95, G 2.65, N 2.95, Y 2.28, C 2.28, V 2.54, E 2.92, L 2.92, Q 2.66, S 3.12
G9: S 2.37, W 1.89, T 2.7, V 1.98, Q 2.77, R 2.65, N 2.62, M 2.59, Y 2.9, P 2.6
A15: Q 3.4, N 2.21, F 1.98, K 2.46, M 2.19, R 2.27, C 2.57, H 2.1, S 2.78, E 3.15, P 3.29, L 2.3, G 3.12, T 2.4, D 2.93, V 2.28, Y 1.68, W 1.58, I 1.43
P11: W 2.29, L 2.2, F 1.85, Y 2.57, M 2.18, Q 2.49, V 1.89, S 2.63, C 2.57, E 3.13, T 2.44, G 3, I 2, H 2.58, A 2.64, R 1.8, D 2.36, K 2.59, N 2.78
V18: D 3.57, K 2.25, S 3.06, A 2.46, L 1.8, W 1.92, E 3.62, H 2.51, I 2.09, Y 3.3, F 2.28, Q 3.1, T 2.73, G 3.16, C 2.58, P 2.31, N 2.97, R 2.66, M 2.29
M20: H 2.25, T 2.85, K 2.76, I 2.14, C 2.63, L 2.89, P 3.25, W 1.95, E 2.65, G 2.53, D 3.97, A 2.78, R 2.43, S 3, F 2.06, N 2.87, V 3.1, Q 4.34, Y 2.89
E17: S 2.21, R 2.71, M 1.68, F 1.9, Q 2.22, K 2.08, G 2.39, H 2.22, I 2.17, P 2.12, A 2.08, N 1.97, Y 1.78, C 1.8, D 2.79, L 1.76, V 1.83, W 1.44, T 1.98
D12: N 2.76, M 2.59, E 2.43, Q 2.72, R 3, S 2.68, K 2.31, H 2.54, C 1.98, L 2.43, A 2.21, G 2.11, V 1.59, W 2.08, T 2.91, F 1.98, I 1.81, Y 1.82

Variants of: B2
Experiment: as above
Conditions: c terminus: a fixed tail appended

Protein stability index: each site, then its substitutions
K3: F 2.1, H 2.04, M 1.5, C 2.43, G 2.08, A 2.62, L 1.71, E 2.94, I 1.68, N 2.32, D 2.59
K1: Y 1.59, G 2.29, C 1.7, F 1.92, S 2.3, R 1.38, E 2.84, I 1.86, D 3.04, A 2.28, M 1.83, L 1.83, N 2.12, P 2.58, V 2.33, T 2.14, H 1.9, Q 2.23, W 1.98
M2: K 2.91, R 2.12, F 2.04, C 2.28, P 2.96, S 2.37, V 1.66, G 2.33, H 2.43, A 3.17, Y 2.11, E 2.6, Q 3.52, I 2.15, N 2.37, D 2.75, L 1.99, T 2.59, W 2.21
